Experimental findings from US20230212319A1, “NOVEL ANTIGEN BINDING DOMAINS AND SYNTHETIC ANTIGEN RECEPTORS INCORPORATING THE SAME” (University of Southern California, priority 2020, published 2023) are described below.

For experiment [1], the system named is RAJI cells. Description: JNG assay, co-culture with RAJI cells. The class given is cell-based. The method, boiled down:
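Jurkat-NFAT-GFP (JNG) cells stably expressing SAR constructs via lentiviral transduction and puromycin/blasticidin selection were cocultured with target cells at E:T ~1:2 for ~4–18 h. NFAT-driven GFP was measured by FACS versus parental JNG cells; scores +/- to 5+ denote ~5–50% GFP-positive cells.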

Experiment [2] concerns LNCaP cells. The experiment can be described thus: JNG assay, co-culture with LNCaP cells. The class given is cell-based. A digest of the protocol:
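NFAT-driven GFP in stably SAR-transduced Jurkat cells after coculture (E:T ~1:2; ~4–18 h), measured by flow cytometry and expressed as % GFP+ cells over parental Jurkat-NFAT-GFP cells.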

B1: SEQ ID NO: 22288: SAR with adaptor binding domain (Table 48) (protein)
chain: MALPVTALLLPLALLLHAARPACLFNQEVQIPLTESYCGPCPKNWICYKNNCYQFFDESKNWYESQASCMSQNASLLKVYSKEDQDLLKLVKSAHWMGLVHIPTNGSWQWEDGSILSPNLLTIIEMQKGDCALYASSFKGYIENCSTPNTYICMQRTVLEGQPKANPTVTLFPPSSEELQANKATLVCLISDFYPGAVTVAWKADGSPVKAGVETTKPSKQSNNKYAASSYLSLTPEQWKSHRSYSCQVTHEGSTVEKTVAPTECSPIKTDVITMDPKDNCSKDANDTLLLQLTNTSAYYMYLLLLLKSVVYFAIITCCLLRRTAFCCNGEKSRAKRSGSGATNFSLLKQAGDVEENPGPTSATMDWIWRILFLVGAATGAHSGPQVQLQESGGGLAQAGGSLRLSCAASGRTFSMGWFRQAPGKEREFVAAITYSGGSPYYASSVRGRFTISRDNAKNTVYLQMNSLKPEDTAVYYCAANPTYGSDWNAENWGQGTQVTVSSGSGGGGSGGGGSGGGGSFEDLFNQEVQIPLTESYCGPCPKNWICYKNNCYQFFDESKNWYESQASCMSQNASLLKVYSKEDQDLLKLVKSAHWMGLVHIPTNGSWQWEDGSILSPNLLTIIEMQKGDCALYASSFKGFIENCSTPNTYICMQRTVTRASTKGPSVFPLAPSSKSTSGGTAALGCLVKDYFPEPVTVSWNSGALTSGVHTFPAVLQSSGLYSLSSVVTVPSSSLGTQTYICNVNHKPSNTKVDKRVEPKSCEVKTDSTDHVKPKETENTKQPSKSCHKPKAIVHTEKVNMMSLTVLGLRMLFAKTVAVNFLLTAKLFFLRAKRSGSGVKQTLNFDLLKLAGDVESNPGPSRGHMTEYKPTVRLATRDDVPRAVRTLAAAFADYPATRHTVDPDRHIERVTELQELFLTRVGLDIGKVWVADDGAAVAVWTTPESVEAGAVFAEIGPRMAELSGSRLAAQQQMEGLLAPHRPKEPAWFLATVGVSPDHQGKGLGSAVVLPGVEAAERAGVPAFLETSAPRNLPFYERLGFTVTADVEVPEGPRTWCMTRKPGA
Consider B1, for which the “GFP induction / activity” value in experiment [1] (co-culture with RAJI cells) is on record as “Essentially similar results”. Besides, the GFP induction entry in experiment [2] (LNCaP cells, only in the presence of SAR-adaptor PSMA-USC76-chVH-G4S-ULBP2-S3 (SEQ ID NO: 23114)) is “Essentially similar results”.

B2: 22043 (protein)
chain: MALPVTALLLPLALLLHAARPQLQLQESGPGLVKPSETLSLTCTVSGDSISSGDYYWGWIRQPPGKGLEWIGHIYYSGVTYYNPSLKSRVTISVDTSRNQFSLKLSSVTAADTAVYYCTREDSSNWRSRGQGTLVTVSSLEDKTHTCPPCPAPIKTDVITMDPKDNCSKDANDTLLLQLTNTSAYYMYLLLLLKSVVYFAIITCCLLRRTAFCCNGEKSRAKRSGSGATNFSLLKQAGDVEENPGPTSMDWIWRILFLVGAATGAHSFEVQLVESGGGVVQPGRSLRLSCAASGFSFSGYGMHWVRQAPGKGLEWVAYISYDGSNKYYADSVKGRFTISRDNSKNTLYLQMNSLRAEDTAVYYCAKDPAWGLRLGESSSYDFDIWGQGTMVTVSSTRDKTHTCPPCPAIPEDTFFPSPESSCDVKLVEKSFETDTNLNFQNLSVIGFRILLLKVAGFNLLMTLRLWSSRAKRSGSGVKQTLNFDLLKLAGDVESNPGPSRGHMTEYKPTVRLATRDDVPRAVRTLAAAFADYPATRHTVDPDRHIERVTELQELFLTRVGLDIGKVWVADDGAAVAVWTTPESVEAGAVFAEIGPRMAELSGSRLAAQQQMEGLLAPHRPKEPAWFLATVGVSPDHQGKGLGSAVVLPGVEAAERAGVPAFLETSAPRNLPFYERLGFTVTADVEVPEGPRTWCMTRKPGA
Consider B2, for which, in experiment [1] (JNG cells expressing construct, co-culture with Raji), the “NFAT-GFP ASSAY: Raji” value is “+/- (refer to approximately 5%, 10%, 20%, 30%, 40% and 50% GFP positive cells)”. Besides, the “NFAT-GFP ASSAY: LNCaP” value in experiment [2] (co-culture with LNCaP) was “+ (refer to approximately 5%, 10%, 20%, 30%, 40% and 50% GFP positive cells)”.
